Results on one molecule are retold here after patent US8703708 (CINCINNATI CHILDREN S HOSPITAL MEDICAL CENTER, dated 2014).

Assay [1] concerns the target T1, Lrp6 (endogenous, in mouse kidney) (mouse, UniProt O88572 20-1613).
T1 construct: whole, on cells; Endogenous receptor in whole d5 post I/R kidney or kidney cortex; also called Lipoprotein receptor like protein 6
Nature of the assay: Western blot for S-tag proteins in whole d5 post I/R kidney from mice treated with Dkk2-C2. The procedure:
(§1) For detection of Dkk2-C2, western blots of 50μg of whole kidney protein lysate per lane were incubated with anti-S-tag antibodies (1:500, BD Biosciences) followed by secondary HRP conjugated antibodies. After detection and stripping blots were re-detected with anti-beta-actin (1:1000, Santa Cruz Biotechnology). The purified recombinant Dkk2C contained only one single band in SDS-PAGE.
(§2) This C2 recombinant form of Dkk2 was administered from d0 to WT mice that were uninjured or which had kidney injury. Kidneys were harvested on day 2 and day 7 after injury and assessed quantitatively for injury. […] After detection and stripping blots were re-detected with anti-beta-actin (1:1000, Santa Cruz Biotechnology). […] When systemic delivery of Dkk2 was delayed until after peak injury at d1, it was nevertheless detectable in the kidney (FIG. 5G) and it retained the capacity to improve kidney function as assessed by plasma creatinine levels (FIG. 5D). […] To understand whether Dkk2 was functioning to augment the canonical pathway, Wnt signalling in kidney cortex of d5 post I/R mice was assessed by detection of phosphorylated Lrp6 since canonical signalling requires phosphorylation of this co-receptor (Zeng et al., Nature 438(7069):873-877 (in eng) (2005)) (FIG. 5E). pLrp6 was not detected in healthy adult kidney cortex (FIG. 1G) but was robustly detected in kidney cortex following injury.
In general terms: Immunoblotting shows a protein as a band on a membrane.

Assay [2] addresses T2, Lrp5 (endogenous, in mouse kidney) (mouse, UniProt Q91VN0 31-1614).
T2 construct: whole, on cells; Endogenous receptor in whole d5 post I/R kidney; The complex was detected in kidney lysate by Western blot; also called Lipoprotein receptor like protein 5
Described as above. The procedure: as §1, §2

T1 sequence (O88572 20-1613): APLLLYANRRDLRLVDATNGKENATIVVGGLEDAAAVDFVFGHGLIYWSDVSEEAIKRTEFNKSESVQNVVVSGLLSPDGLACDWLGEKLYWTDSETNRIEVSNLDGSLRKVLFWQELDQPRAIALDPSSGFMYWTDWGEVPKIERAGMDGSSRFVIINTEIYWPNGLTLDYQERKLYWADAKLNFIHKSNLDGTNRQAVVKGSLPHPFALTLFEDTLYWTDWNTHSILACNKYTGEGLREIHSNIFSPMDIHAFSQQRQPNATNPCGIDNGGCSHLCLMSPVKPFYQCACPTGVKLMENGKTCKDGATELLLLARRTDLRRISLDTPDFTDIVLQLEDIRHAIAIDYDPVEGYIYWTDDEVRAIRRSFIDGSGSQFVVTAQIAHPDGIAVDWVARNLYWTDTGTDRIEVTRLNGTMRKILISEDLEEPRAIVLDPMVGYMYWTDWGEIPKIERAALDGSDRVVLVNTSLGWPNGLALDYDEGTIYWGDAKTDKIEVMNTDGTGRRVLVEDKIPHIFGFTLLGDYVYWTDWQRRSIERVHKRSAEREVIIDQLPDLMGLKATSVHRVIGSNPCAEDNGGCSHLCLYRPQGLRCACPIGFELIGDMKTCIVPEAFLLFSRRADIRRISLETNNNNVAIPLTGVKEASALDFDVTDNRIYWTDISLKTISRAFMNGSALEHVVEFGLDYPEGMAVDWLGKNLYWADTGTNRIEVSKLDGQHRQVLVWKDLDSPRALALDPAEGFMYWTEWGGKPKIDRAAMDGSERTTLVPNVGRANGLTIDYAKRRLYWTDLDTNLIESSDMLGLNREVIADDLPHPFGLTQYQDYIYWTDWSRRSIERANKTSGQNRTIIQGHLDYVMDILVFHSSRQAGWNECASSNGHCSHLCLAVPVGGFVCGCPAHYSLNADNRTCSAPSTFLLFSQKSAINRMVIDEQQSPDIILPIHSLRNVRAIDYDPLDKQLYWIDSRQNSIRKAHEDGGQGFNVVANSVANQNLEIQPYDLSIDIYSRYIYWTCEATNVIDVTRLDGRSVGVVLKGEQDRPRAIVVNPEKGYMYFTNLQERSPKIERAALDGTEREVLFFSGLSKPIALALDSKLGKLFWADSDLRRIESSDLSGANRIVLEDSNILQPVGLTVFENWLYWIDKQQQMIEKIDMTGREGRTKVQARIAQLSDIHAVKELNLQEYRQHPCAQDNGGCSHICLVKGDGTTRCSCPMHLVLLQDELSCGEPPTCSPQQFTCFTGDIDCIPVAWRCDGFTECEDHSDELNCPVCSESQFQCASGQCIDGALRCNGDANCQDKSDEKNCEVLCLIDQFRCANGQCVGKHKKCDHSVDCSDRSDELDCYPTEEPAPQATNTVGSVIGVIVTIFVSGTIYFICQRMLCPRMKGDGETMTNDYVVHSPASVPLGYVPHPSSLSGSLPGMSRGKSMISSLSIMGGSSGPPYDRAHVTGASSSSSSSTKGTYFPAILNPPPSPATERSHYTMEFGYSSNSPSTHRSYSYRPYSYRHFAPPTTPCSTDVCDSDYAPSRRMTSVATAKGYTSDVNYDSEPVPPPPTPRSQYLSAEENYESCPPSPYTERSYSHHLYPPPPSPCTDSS
T2 sequence (Q91VN0 31-1614): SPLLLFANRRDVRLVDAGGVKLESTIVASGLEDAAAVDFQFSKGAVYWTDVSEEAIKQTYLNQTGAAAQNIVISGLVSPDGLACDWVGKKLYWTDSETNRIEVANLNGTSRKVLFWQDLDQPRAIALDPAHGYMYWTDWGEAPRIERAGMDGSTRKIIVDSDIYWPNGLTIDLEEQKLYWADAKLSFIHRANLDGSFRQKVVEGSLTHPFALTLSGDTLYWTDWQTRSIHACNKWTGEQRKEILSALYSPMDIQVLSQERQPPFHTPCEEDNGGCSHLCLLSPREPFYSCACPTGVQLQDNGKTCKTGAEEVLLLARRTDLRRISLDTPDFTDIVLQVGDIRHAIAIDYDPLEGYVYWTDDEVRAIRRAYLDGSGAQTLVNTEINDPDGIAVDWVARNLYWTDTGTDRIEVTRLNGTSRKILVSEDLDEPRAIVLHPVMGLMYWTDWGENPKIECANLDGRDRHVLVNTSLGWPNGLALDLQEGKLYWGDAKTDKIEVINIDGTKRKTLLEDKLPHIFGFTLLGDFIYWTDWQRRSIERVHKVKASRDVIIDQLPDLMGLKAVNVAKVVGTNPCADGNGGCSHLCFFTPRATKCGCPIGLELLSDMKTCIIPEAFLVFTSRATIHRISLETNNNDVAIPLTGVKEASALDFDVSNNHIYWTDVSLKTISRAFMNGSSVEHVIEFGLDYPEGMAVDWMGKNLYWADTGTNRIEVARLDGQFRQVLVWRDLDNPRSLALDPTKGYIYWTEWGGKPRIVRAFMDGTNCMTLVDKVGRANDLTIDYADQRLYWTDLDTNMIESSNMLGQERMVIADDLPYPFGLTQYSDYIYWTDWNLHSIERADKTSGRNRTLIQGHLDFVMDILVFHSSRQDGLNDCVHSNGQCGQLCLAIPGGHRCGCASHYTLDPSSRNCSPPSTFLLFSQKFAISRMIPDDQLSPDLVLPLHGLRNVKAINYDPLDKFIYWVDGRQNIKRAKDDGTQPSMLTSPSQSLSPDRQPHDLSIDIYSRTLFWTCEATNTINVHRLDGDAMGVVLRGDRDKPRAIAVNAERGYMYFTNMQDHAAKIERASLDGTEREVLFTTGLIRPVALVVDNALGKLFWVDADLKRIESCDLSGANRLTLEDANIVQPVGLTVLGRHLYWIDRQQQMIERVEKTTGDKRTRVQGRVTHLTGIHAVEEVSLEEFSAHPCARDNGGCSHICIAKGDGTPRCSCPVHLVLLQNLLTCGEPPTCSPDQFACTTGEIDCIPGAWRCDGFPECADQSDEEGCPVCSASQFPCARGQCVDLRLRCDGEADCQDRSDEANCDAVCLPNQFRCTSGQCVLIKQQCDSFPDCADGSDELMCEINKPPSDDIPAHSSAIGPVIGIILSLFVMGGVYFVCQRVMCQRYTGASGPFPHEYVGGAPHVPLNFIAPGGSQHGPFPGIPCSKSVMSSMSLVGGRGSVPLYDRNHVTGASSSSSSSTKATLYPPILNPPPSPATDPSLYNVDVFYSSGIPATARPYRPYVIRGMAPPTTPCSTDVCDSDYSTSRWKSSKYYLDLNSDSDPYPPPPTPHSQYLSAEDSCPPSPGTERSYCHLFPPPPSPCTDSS

B1: recombinant protein Dkk2C (amino acids Met172-Ile259 of mouse Dkk2) with N-terminal S tag and thrombin cleavage site (ligand)
chain: MPHIKGHEGDPCLRSSDCIDGFCCARHFWTKICKPVLHQGEVCTKQRKKGSHGLEIFQRCDCAKGLSCKVWKDATYSSKARLHVCQKI
notes: Expressed in E. coli; Detected in kidney lysate with anti-S-tag antibodies, so the S tag was still on the protein; also called Dkk2-C2; D2C2; not shown: N-terminal S tag; thrombin cleavage site between the S tag and Dkk2C
As to B1, the binding result in assay [1] and in assay [2] was “binds” each time.
